Laboratory results as given in the supplement of paper PMC9233669.
Variants at the floor of the assay were thinned out.

Columns and labels:
[1] = system: biotinyl-Met-oxazolone; assay: self-aminoacylation, catalytic enhancement (BMO) (fold over background); higher = more active; k-Seq, kA / k0A0; sequences stand for … in GGGAAUGGAUCCACAUCUACGAAUUC…UUCACUGCAGACUUGACGAAGCUG
Procedure, shortened: (§1)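 Catalytic enhancement equals the median kA over the uncatalyzed rate, the latter read from the low-activity peak of a bimodal Gaussian fit. Values of kA came from fitting each sequence's fraction reacted to a pseudo-first-order model, with 1000 bootstraps. Reacted RNA was captured with streptavidin and quantified by triplicate qPCR and Illumina sequencing after 90 minutes at room temperature with 2–1250 μM biotinyl-aminoacyl-oxazolone and 0.43 μM mutagenized RNA pools bearing a 21-nt variable region.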

[2] = system: biotinyl-Leu-oxazolone; assay: self-aminoacylation, catalytic enhancement (BLO) (fold over background); higher = more active; k-Seq, kA / k0A0; sequences stand for … in GGGAAUGGAUCCACAUCUACGAAUUC…UUCACUGCAGACUUGACGAAGCUG
Procedure, shortened: as §1

[3] = system: biotinyl-Val-oxazolone; assay: self-aminoacylation, catalytic enhancement (BVO) (fold over background); higher = more active; k-Seq, kA / k0A0; sequences stand for … in GGGAAUGGAUCCACAUCUACGAAUUC…UUCACUGCAGACUUGACGAAGCUG
Procedure, shortened: as §1

[4] = system: biotinyl-Phe-oxazolone; assay: self-aminoacylation, catalytic enhancement (BFO) (fold over background); higher = more active; k-Seq, kA / k0A0; sequences stand for … in GGGAAUGGAUCCACAUCUACGAAUUC…UUCACUGCAGACUUGACGAAGCUG
Procedure, shortened: as §1

[5] = system: biotinyl-Ile-oxazolone; assay: self-aminoacylation, catalytic enhancement (BIO) (fold over background); higher = more active; k-Seq, kA / k0A0; sequences stand for … in GGGAAUGGAUCCACAUCUACGAAUUC…UUCACUGCAGACUUGACGAAGCUG
Procedure, shortened: as §1

[6] = system: biotinyl-Trp-oxazolone; assay: self-aminoacylation, catalytic enhancement (BWO) (fold over background); higher = more active; k-Seq, kA / k0A0; sequences stand for … in GGGAAUGGAUCCACAUCUACGAAUUC…UUCACUGCAGACUUGACGAAGCUG
Procedure, shortened: as §1

Row | Sequence | self-aminoacylation [1] | self-aminoacylation [2] | self-aminoacylation [3] | self-aminoacylation [4] | self-aminoacylation [5] | self-aminoacylation [6]
1 | AUUACCCUGGUCAGCGGGUGA [Fam2.1 aminoacylation ribozyme variant] | 9.2 | 10.1 | 6.36 | 68.2 | 5.3 | 10.1
2 | AUUACCCUGGUCAGCGUGUGA [Fam2.1 aminoacylation ribozyme variant] | 5.28 | 5.25 | 3.59 | 30.9 | 2.79 | 6.56
3 | AUUACCCUGGUCAUAGACUGA [Fam2.1 aminoacylation ribozyme variant] | 0.586 | 0.739 | 0.991 | 0.776 | 0.874 | 0.537
4 | AUUACCCUGGUCAUAGAGAGA [Fam2.1 aminoacylation ribozyme variant] | 0.983 | 0.798 | 0.717 | 0.605 | 0.947 | 0.77
5 | AUUACCCUGGUCAUAGAGUUA [Fam2.1 aminoacylation ribozyme variant] | 1.39 | 0.921 | 1.1 | 0.667 | 1.25 | 0.786
6 | AUUACCCUGGUCAUCAACUGA [Fam2.1 aminoacylation ribozyme variant] | 0.667 | 0.851 | 1.13 | 0.556 | 0.789 | 0.571
7 | AUUACCCUGGUCAUCAAGGGA [Fam2.1 aminoacylation ribozyme variant] | 0.807 | 0.752 | 1.13 | 1.11 | 0.87 | 1.2
8 | AUUACCCUGGUCAUCAAGUGC [Fam2.1 aminoacylation ribozyme variant] | 0.691 | 0.567 | 0.795 | 0.434 | 0.689 | 0.302
9 | AUUACCCUGGUCAUCAAGUUA [Fam2.1 aminoacylation ribozyme variant] | 0.684 | 0.646 | 0.681 | 0.737 | 0.676 | 0.328
10 | AUUACCCUGGUCAUCACGUGA [Fam2.1 aminoacylation ribozyme variant] | 8.87 | 7.86 | 4.39 | 52.4 | 3.08 | 9.65
11 | AUUACCCUGGUCAUCAUGUGA [Fam2.1 aminoacylation ribozyme variant] | 6.44 | 6.36 | 3.17 | 26.2 | 2.67 | 6.97
12 | AUUACCCUGGUCAUCCAGUGA [Fam2.1 aminoacylation ribozyme variant] | 5.67 | 5.76 | 3.42 | 28.1 | 3.41 | 6.71
13 | AUUACCCUGGUCAUCCAGUGG [Fam2.1 aminoacylation ribozyme variant] | 1.84 | 1.68 | 1.3 | 1.42 | 1.22 | 1.28
14 | AUUACCCUGGUCAUCCAGUUA [Fam2.1 aminoacylation ribozyme variant] | 0.914 | 0.855 | 1.08 | 0.726 | 0.875 | 0.433
15 | AUUACCCUGGUCAUCGAAUGA [Fam2.1 aminoacylation ribozyme variant] | 1.07 | 1.08 | 1.06 | 0.974 | 1 | 0.908
16 | AUUACCCUGGUCAUCGAAUGC [Fam2.1 aminoacylation ribozyme variant] | 0.827 | 0.723 | 0.68 | 0.567 | 1.04 | 0.726
17 | AUUACCCUGGUCAUCGACUGC [Fam2.1 aminoacylation ribozyme variant] | 0.555 | 0.839 | 0.722 | 0.441 | 0.701 | 0.371
18 | AUUACCCUGGUCAUCGAGCGG [Fam2.1 aminoacylation ribozyme variant] | 2.38 | 2.9 | 1.8 | 1.12 | 1.95 | 1.61
19 | AUUACCCUGGUCAUCGAGGAA [Fam2.1 aminoacylation ribozyme variant] | 5.91 | 5.25 | 2.44 | 8.38 | 2.3 | 4.88
20 | AUUACCCUGGUCAUCGAGGGC [Fam2.1 aminoacylation ribozyme variant] | 1.77 | 1.56 | 1.24 | 1.09 | 1.31 | 1.12
21 | AUUACCCUGGUCAUCGAGGUA [Fam2.1 aminoacylation ribozyme variant] | 7.24 | 5.68 | 3.16 | 10.2 | 2.38 | 5.45
